Results: the supplement of paper PMC12042874
± gives the uncertainty stated by the source.

Experiment: amyloid nucleation score (Sup35N fusion, yeast selection) (log enrichment); library NNK3; higher = more nucleation; inactive = no reads after selection
Procedure, shortened: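 For the nucleation score, DiMSum gave the log enrichment of output over input reads, centred on the mode score of non-aggregating sequences. Psi-negative yeast expressing Sup35N fused to peptides of 20 random codons were induced with 100 μM copper sulfate for 24 hours and grown 7 days at 30°C on medium lacking adenine and uracil. Input and output plasmid inserts were Illumina-sequenced, and sequences with under 100 input reads were excluded.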

Substance | amyloid nucleation score
YSSARTFSLHCIERLYSGYV | inactive
FWSWNVWLRSGSPAISFHK | inactive
KDSCCVGSRNAHFECYFEVA | inactive
ALIKFLEFKGRSAWSMRFIA | inactive
TVRVYIHIYHIGFLGPMRSE | 0.889 ± 0.22
VLLKALVIFDY | inactive
LSDYEDIAISFIKYRCSSLN | 1.42 ± 0.11
LPYQIIWRCCAMVNFDFLVL | inactive
TYFHIRCVV | inactive
FNQQLSECVDVARELAGG | 1.99 ± 0.086
FILRDHRLSLSNCAMKCPQG | inactive
FCYVSCLS | inactive
YGNEFEDNPSMATTTDQRAR | 0.468 ± 0.22
SGKSLDDRFSK | inactive
LCETYYHHTARGLHLASLVS | inactive
METCPLCIICLYGKWIRFSR | inactive
PLFGRCHRWGVTMQYSLLIG | inactive
MRNVVSSISRCFDMKAVQQR | inactive
RGITMCMSVL | inactive
AVNCESSCCECYGTFMDKPV | inactive
VKSVLFDGKL | inactive
TPAMYFPIYFSAHGHLYLFY | inactive
MSCYVV | inactive

Substance | amyloid nucleation score
SNFVIVSWIVTNVLRM | 0.869 ± 0.094
IAHVMYNYQHVTSCNMSSVL | 0.726 ± 0.13
GNFINHT | inactive
ALVCYK | inactive
SMGRYDLLPTPDVVSLSYNM | inactive
TGVMRYRCLNLFVASICSVP | inactive
SWIKEFIQFIFIEGFRC | inactive
VMCLRRMSFQCMQSQMEALA | inactive
YLMFGTTNMAVLIRFEHH | inactive
RSTCCWIR | inactive
VYIMYLSGCCRCHVPMNEGT | 2.05 ± 0.073
FISHRARWISDESYIICHFV | -0.067 ± 1.1
LKTSNRR | inactive
RRRVSKANPGDVMIWSVIAK | inactive
MGQFVRYLMADSCL | inactive
VEYNWSLFFNPRDFRGARDL | 0.505 ± 0.27
PFWVTVYMDILLVKQQPLSV | inactive
KLYYIVRCEFCRDCKMAWGN | 1.29 ± 0.094
TQSWLCRV | inactive
TLDILLE | inactive
VHFCWNADVSLHITLVGINS | inactive
VRLVAMCWGHLDKNRALRRG | inactive
TSLDCYLMRLFLGWEALKVW | inactive

Substance | amyloid nucleation score
QIVYSLILGDPPAASVWEKS | inactive
SEALCWIVTSVCRLRVFLV | inactive
YGCGIQGLVQWTCDTGRMHC | inactive
GNIVLMMSYILM | 2.3 ± 0.086
LRNIMGECDSAWKDVMVGVA | inactive
TTQILYTFY | 1.56 ± 0.12
SYKMNVMT | inactive
NLFSRLRYSLSAFQIWRLSV | inactive
ERRRVRP | inactive
QTYMTLHETVRLWARMLSC | inactive
SPDVLFESKYRFWDMLSQIA | inactive
HLSWNSLTDRNVLC | inactive
LRTPGTGSFAESEDLSMTEG | inactive
VNRKLWGT | inactive
IDIVCAF | inactive
KPSSFNDAIR | inactive
GGKSVLLTFFQWLP | 0.56 ± 0.2
SWMTTRKGGDVALHASLFRM | inactive
EWIGVVNVRNDPPSGC | inactive
TCRICTFGVWDFCRTDERRH | 2.24 ± 0.069
ERFYTLVI | inactive
GSSCRRINTEYSLAAYQSYE | inactive
VCHGRSNHA | inactive

Substance | amyloid nucleation score
RSNWPSTILTSWSARCHWLS | inactive
SASLLN | inactive
IISVIVTVYR | inactive
CLVYLV | inactive
IRSIEPYPMHTTSW | -0.428 ± 1.1
IVYTSSLSAMCMRGRNGAVR | inactive
CPCDTGVKQVTILEQGWVVM | 0.963 ± 0.14
KNTSIK | inactive
RTLVPGTHR | inactive
IISDQEFSYETCDFSYFCKG | inactive
WLRRN | inactive
PYTWAMHLNLLITTDR | -0.032 ± 0.54
DCFSGIGCSRRKT | inactive
YHWSS | inactive
RVVPMVTVGKIRKNLMD | inactive
IAARW | inactive
LALFVSCICVIVSELFFTMN | inactive
TSVSPRHLVSTSTMICSFAH | inactive
HECVYYSSLTQSYVSVYIFT | 2.65 ± 0.077
PFSFKLPR | inactive
GLFRFFVIIITEEVRRAVSK | inactive
FCRLGIRSVFIYFKVTSLIV | 0.049 ± 0.47
LLISGCRSFMMAFSGCL | inactive

Substance | amyloid nucleation score
ERNAGLITAFYFYSPFGTMM | inactive
WMVNVTGWISHGRFGYNFLI | inactive
PLSFIKRRFRRLAGLSRSSA | inactive
TDRVNFSRLFSLIHDWLTPG | inactive
LVMLMYVVPGFVGGDFTGDF | inactive
PDDKLM | inactive
GIWCDITHGNRMAWNYVLIR | inactive
VSTGTYFSVIKEEVRLGLLH | 0.537 ± 0.36
LVTSNNMSAGRYNMCLRVLS | inactive
ICYTALGCYISSQFSGWGRM | 1.12 ± 0.088
STSVSLTWNPKKRLYYLLTI | inactive
SRVLDGVWRAVLSCFQGSSI | 0.867 ± 0.12
TVRKHLLLDHKWYVVNSEIT | inactive
YRLPMILKFLNWGFSYLVPF | inactive
AEGLCCMANLWSCAGSRTYT | 0.947 ± 0.13
IESKLDAYTLCVGSSNWLWM | inactive
GPQYWCVTRNNYYGSFYEVS | 0.407 ± 0.18
SVVVVSWTTMLNDKLDPLDG | inactive
HWACNWI | inactive
VYSDDVKVVYMYGTNPFDTV | inactive
VVTHLALSKRSSAVTIFAWG | inactive
YMGCMTVW | inactive
AHITRGNKSGAVFASCRTWS | inactive

Substance | amyloid nucleation score
THSDYSEPRI | inactive
WAVIKLMRSERTVGVWGSNT | inactive
IVCRISTTCQWCRINVSGGS | 1.12 ± 0.1
FNFFQCFRQNASTIFSSGML | inactive
GPWGSNNMQICTYFQNLFIA | 1.73 ± 0.092
KSYMYILKWAVLVLCSRSGL | inactive
FLGCNRV | inactive
FSRGVCTSYLSVRYGLCSTE | inactive
IRSLLLILVRSAVPSALSVN | inactive
LVLGWWAIFGVDYGHSSYLL | inactive
NSSEGDDY | inactive
RYTFGTAIERVLQVILNEMT | inactive
MAHDEYWTGCVTGYKELEVM | inactive
RRNYRSFKDLLFHDYTFMDS | inactive
WRTFLCWYVLGPKTSFEYGR | inactive
LVGYRAQLHGVNYSMFVGIS | inactive
FRNRLGSTDNQWV | inactive
SPLSRWLVDNTGPLGGSLSR | inactive
SSMVTSLGCVLYKL | inactive
IGTTEQ | inactive
CLTGRLLKSSVIRWRKYMNV | inactive
SKLLIPHNNGRYSFFWSIGM | 2.04 ± 0.078
YHSSVCTDVIYGTTYWGCAV | inactive

Substance | amyloid nucleation score
RNSVIWNRLYRMRWV | inactive
MDAYRNHFMFTIIKFYSCES | inactive
HHLKGQ | inactive
PTTFNVFLGLWCVGTYCTWL | 0.997 ± 0.24
KFYDHTLCFVDWRDFSW | inactive
PRPLGLFTSYDNGLGYRQGQ | inactive
NRSTWCW | inactive
SLCLASGFKRCNIV | -0.072 ± 0.8
MNWYRIFVVNFSCKRLYSVK | 1.64 ± 0.067
HGKSYILVWCMRHSRTECVR | inactive
TKYAHPPTQDDPLCGIRRSV | inactive
SLMSGWN | inactive
VLFNSPTRGVHLLQTGSRQS | inactive
CAVGISLRPFFMISLQLSYL | inactive
SNVCINLAGYDYIFFRCMMG | 0.293 ± 0.24
LLSPQFRRIGSFRWKFAPRF | inactive
SNLLS | inactive
HSRTYFQSISGWISCLMSTL | 1.13 ± 0.11
AACHINNICKSLVL | inactive
EAYDGKSSICSRCS | inactive
INSEWIQSSAMFHPIMGRFR | -0.188 ± 1.5
DSCAIES | inactive
